The results in this text go back to paper PMC10715591, “EspB and HtpG interact with the type III-A CRISPR/Cas system of Mycobacterium tuberculosis” (Frontiers in Molecular Biosciences, 2023).

For the experiment, the target named is T1, MtbHtpG (high-temperature protein G) (Mycobacterium tuberculosis H37Rv, UniProt P9WMJ7 1-647).
T1 construct: also called Chaperone htpG
T1 sequence: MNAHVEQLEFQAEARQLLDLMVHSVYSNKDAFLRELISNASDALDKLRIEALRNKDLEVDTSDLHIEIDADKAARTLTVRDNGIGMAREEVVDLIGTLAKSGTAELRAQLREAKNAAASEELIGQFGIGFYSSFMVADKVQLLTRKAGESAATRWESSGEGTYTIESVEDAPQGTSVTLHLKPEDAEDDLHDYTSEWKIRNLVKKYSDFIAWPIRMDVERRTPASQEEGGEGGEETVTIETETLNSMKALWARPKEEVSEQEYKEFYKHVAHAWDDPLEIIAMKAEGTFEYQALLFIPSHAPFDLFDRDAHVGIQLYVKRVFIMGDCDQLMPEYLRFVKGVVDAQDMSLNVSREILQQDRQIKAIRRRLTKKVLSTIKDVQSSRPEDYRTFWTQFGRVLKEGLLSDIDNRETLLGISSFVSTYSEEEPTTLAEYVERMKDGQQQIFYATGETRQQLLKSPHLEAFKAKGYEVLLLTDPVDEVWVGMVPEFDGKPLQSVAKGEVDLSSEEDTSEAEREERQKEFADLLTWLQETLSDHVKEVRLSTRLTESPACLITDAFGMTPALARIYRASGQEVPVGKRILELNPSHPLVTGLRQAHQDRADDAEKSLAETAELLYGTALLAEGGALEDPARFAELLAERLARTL
As to the kind of experiment: SPR. Particulars: both partners purified.

B1: MtbCsm3 (natural protein)
chain: MTTSYAKIEITGTLTVLTGLQIGAGDGFSAIGAVDKPVVRDPLSRLPMIPGTSLKGKVRTLLSRQYGADTETFYRKPNEDHAHIRRLFGDTEEYMTGRLVFRDTKLTNKDDLEARGAKTLTEVKFENAINRVTAKANLRQMERVIPGSEFAFSLVYEVSFGTPGEEQKASLPSSDEIIEDFNAIARGLKLLELDYLGGSGTRGYGQVKFSNLKARAAVGALDGSLLEKLNHELAAV
For the molecule B1, the Kd (usually a measure of binding affinity in units of concentration) was determined as 59.4 nM; the koff (commonly the rate constant with which the complex falls apart) stood at 0.000914 s⁻¹; the kon – broadly, the rate constant with which the complex forms – amounted to 15400 M⁻¹ s⁻¹.
